We go through 21 molecules from patent US20220396617A1 (BEIJING MABWORKS BIOTECH, published 2022).

Where a chain is given by its changes, count along the chain named.

T1: human TIGIT expressed on HEK293A cells (human, UniProt Q495A1 22-244)
T1 sequence: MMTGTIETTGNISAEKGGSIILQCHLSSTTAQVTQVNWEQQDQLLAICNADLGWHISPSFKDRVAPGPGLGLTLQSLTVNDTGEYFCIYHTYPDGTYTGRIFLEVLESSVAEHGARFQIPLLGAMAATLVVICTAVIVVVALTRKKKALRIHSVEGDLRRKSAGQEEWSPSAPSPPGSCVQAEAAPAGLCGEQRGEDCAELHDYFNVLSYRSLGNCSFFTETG

T2: human TIGIT (ECD)-his (human, UniProt Q495A1 22-141)
T2 construct: bought protein; also called hTIGIT(ECD)-his; Cat #: 10917-H08H, Sino Biological; not shown: his tag of the bought protein
T2 sequence: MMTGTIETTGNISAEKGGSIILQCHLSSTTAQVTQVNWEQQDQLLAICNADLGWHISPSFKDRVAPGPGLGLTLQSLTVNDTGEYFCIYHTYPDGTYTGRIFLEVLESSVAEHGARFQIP

T3: TIGIT (ECD)-hFc (human, UniProt Q495A1 22-141)
T3 construct: bought protein; also called recombinant human TIGIT (ECD)-hFc; Cat #: 10917-H02H, Sino Biological; not shown: human Fc (hFc) of the bought protein
T3 sequence: T2 sequence

B1: 70E11-VH3VL3 (antibody, human IgG1, kappa, V domains shown)
VH: QVQLVQSGAEVKKPGASVKVSCKASGYTFTSYNVHWVRQAPGQGLEWIGTIYPGNLATSYNQKFKGRVTLTADKSTSTVYMELSSLRSEDTAVYYCARSGTMDYWGQGTTVTVSS
VL: EIVLTQSPGTLSLSPGERATLSCRASSSISSTYLHWYQQKPGASPKLLIYNTQNLASGIPDRFSGSGSGTSYTLTISRLEPEDFAVYYCQQFGGYPLITFGAGTKLELKR
notes: humanized, human IgG1/kappa
B2: 70E11-VH5VL3 (antibody, human IgG1, kappa, V domains shown)
VH: B1 VH with R38K, A40T, R67K, V68A
VL: B1 VL
notes: humanized, human IgG1/kappa; also called 70E11H5L3
B3: 70E11-VH4VL2 (antibody, human IgG1, kappa, V domains shown)
VH: B1 VH with R38K, A40T
VL: B1 VL with A43Q, S44A, Y72F
notes: humanized, human IgG1/kappa
B4: 70E11-VH2VL4 (antibody, human IgG1, kappa, V domains shown)
VH: B1 VH with I48M, K74T
VL: B1 VL with L21M, S22T, I59V, D61A
notes: humanized, human IgG1/kappa; also called 70E11H2L4
B5: 70E11-VH1VL1 (antibody, human IgG1, kappa, V domains shown)
VH: B1 VH with I48M, L70M, A72R, K74T
VL: B1 VL with A43Q, S44A, K46R, S71D, Y72F
notes: humanized, human IgG1/kappa
B6: 70E11-VH4VL3 (antibody, human IgG1, kappa, V domains shown)
VH: B1 VH with R38K, A40T
VL: B1 VL
notes: humanized, human IgG1/kappa
B7: 149G11-VH3VL2 (antibody, human IgG1, kappa, V domains shown)
VH: QVQLVQSGAEVKKPGASVKVSCKASGYTFTNYWIHWVKQAPGQGLEWIGDIYPGGRYSNYNEKFRGRVTLTADTSTSTVYMELSSLTSEDTAVYYCARYYESAMDFWGQGTTVTVSS
VL: DIVMTQSPDSLAVSLGERATINCKSSQNLLYNSNQKSYLAWFQQKPGQPPKLLIYWASTRESGVPDRFSGSGSGTDFTLTISSLQAEDLAVYYCQQYYNYPFTFGAGTKLELKR
notes: humanized, human IgG1/kappa
B8: 149G11-VH4VL3 (antibody, human IgG1, kappa, V domains shown)
VH: B7 VH with A40R, Q43H
VL: B7 VL with I21V, P49S
notes: humanized, human IgG1/kappa
B9: 149G11-VH3VL3 (antibody, human IgG1, kappa, V domains shown)
VH: B7 VH
VL: B7 VL with I21V, P49S
notes: humanized, human IgG1/kappa
B10: 149G11-VH4VL2 (antibody, human IgG1, kappa, V domains shown)
VH: B7 VH with A40R, Q43H
VL: B7 VL
notes: humanized, human IgG1/kappa
B11: 149G11-VH2VL3 (antibody, human IgG1, kappa, V domains shown)
VH: B7 VH with K38R
VL: B7 VL with I21V, P49S
notes: humanized, human IgG1/kappa; also called 149G11H2L3
B12: 149G11-VH2VL2 (antibody, human IgG1, kappa, V domains shown)
VH: B7 VH with K38R
VL: B7 VL
notes: humanized, human IgG1/kappa
B13: 70E11-VH3VL4 (antibody, human IgG1, kappa, V domains shown)
VH: B1 VH
VL: B1 VL with L21M, S22T, I59V, D61A
notes: humanized, human IgG1/kappa
B14: 149G11-VH1VL1 (antibody, human IgG1, kappa, V domains shown)
VH: B7 VH with K38R, I48M, L70M, A72R, T87R
VL: B7 VL with F42Y, L89V
notes: humanized, human IgG1/kappa
B15: 70E11-VH5VL4 (antibody, human IgG1, kappa, V domains shown)
VH: B1 VH with R38K, A40T, R67K, V68A
VL: B1 VL with L21M, S22T, I59V, D61A
notes: humanized, human IgG1/kappa
B16: 70E11-VH4VL4 (antibody, human IgG1, kappa, V domains shown)
VH: B1 VH with R38K, A40T
VL: B1 VL with L21M, S22T, I59V, D61A
notes: humanized, human IgG1/kappa
B17: 70E11-VH2VL2 (antibody, human IgG1, kappa, V domains shown)
VH: B1 VH with I48M, K74T
VL: B1 VL with A43Q, S44A, Y72F
notes: humanized, human IgG1/kappa
B18: 70E11-VH2VL3 (antibody, human IgG1, kappa, V domains shown)
VH: B1 VH with I48M, K74T
VL: B1 VL
notes: humanized, human IgG1/kappa
B19: 70E11-VH5VL2 (antibody, human IgG1, kappa, V domains shown)
VH: B1 VH with R38K, A40T, R67K, V68A
VL: B1 VL with A43Q, S44A, Y72F
notes: humanized, human IgG1/kappa
B20: 70E11-VH3VL2 (antibody, human IgG1, kappa, V domains shown)
VH: B1 VH
VL: B1 VL with A43Q, S44A, Y72F
notes: humanized, human IgG1/kappa
B21: Etigilimab (antibody, V domains shown)
VH: QVQLQESGPGLVKPSETLSLTCAVSGYSITSDYAWNWIRQPPGKGLEWIGYISYSGSTSYNPSLRSRVTISRDTSKNQFFLKLSSVTAADTAVYYCARRQVGLGFAYWGQGTLVTVSS
VL: DIQMTQSPSSLSASVGDRVTITCKASQDVSTAVAWYQQKPGKAPKLLIYSASYRYTGVPSRFSGSGSGTDFTFTISSLQPEDIATYYCQQHYSTPWTFGQGTKVEIK

One test has as its target T1, human TIGIT expressed on HEK293A cells. Put plainly: cell-based or functional assay.
For B1, the “NK92-mediated ADCC against HEK293A/human TIGIT cells, EC50” value was 0.0191 nM.

On to B2, for which the “NK92-mediated ADCC against HEK293A/human TIGIT cells, EC50” value was found to be 0.00714 nM.

As to B3, the “NK92-mediated ADCC against HEK293A/human TIGIT cells, EC50” value was 0.00912 nM.

B4: the “NK92-mediated ADCC against HEK293A/human TIGIT cells, EC50” value was 0.0172 nM.

Consider B5, for which the “NK92-mediated ADCC against HEK293A/human TIGIT cells, EC50” value turned out to be 0.00436 nM.

B6: the “NK92-mediated ADCC against HEK293A/human TIGIT cells, EC50” value was determined as 0.00729 nM.

Regarding B7, the “NK92-mediated ADCC against HEK293A/human TIGIT cells, EC50” value was determined as 0.013 nM.

Consider B8, for which the “NK92-mediated ADCC against HEK293A/human TIGIT cells, EC50” value amounted to 0.0177 nM.

Turning to B9, the “NK92-mediated ADCC against HEK293A/human TIGIT cells, EC50” value turned out to be 0.014 nM.

With B10, the “NK92-mediated ADCC against HEK293A/human TIGIT cells, EC50” value came to 0.0184 nM.

Take B11: the “NK92-mediated ADCC against HEK293A/human TIGIT cells, EC50” value was 0.00795 nM.

For B12, the “NK92-mediated ADCC against HEK293A/human TIGIT cells, EC50” value came out at 0.0162 nM.

In the next test the target is T2, human TIGIT (ECD)-his. Briefly: SPR (BIAcore 8K), human TIGIT (ECD)-his on CM5 chip, antibody injected. As to the method: They were also tested in SPR assays for their binding affinities to human and monkey TIGITs using the BIAcore™ 8K instrument (GE Life Sciences, US). […] The binding affinities were calculated with the RUs of blank controls subtracted. The association rate (kₐ) and dissociation rate (kd) were calculated using the one-to-one Langmuir binding model (BIA Evaluation Software, GE Life Sciences, US). The equilibrium dissociation constant KD was calculated as the kd/kₐ ratio.
The molecule B1 yielded a Kd of 0.124 nM.

The molecule B2 displayed a Kd of 0.25 nM.

In turn, B4 registered a Kd of 0.43 nM.

For the molecule B13, binding was characterised by a dissociation constant (Kd) of 0.0502 nM.

Molecule B8 returned a Kd of 0.0022 nM.

B10 showed a Kd of 0.00309 nM.

Molecule B11 registered a Kd of 0.00329 nM.

The target of another test is T1, human TIGIT expressed on HEK293A cells. Put plainly: FACS, HEK293A/human TIGIT cells, serially diluted antibody (protocol of Example 5) [A].
Regarding B7, the “EC50 (read off the curve)” value is around 0.2 µg/mL.

For B8, the “EC50 (read off the curve)” value is around 0.2 µg/mL.

On to B9, for which the “EC50 (read off the curve)” value is around 0.2 µg/mL.

On to B10, for which the “EC50 (read off the curve)” value was around 0.2 µg/mL.

With B14, the “EC50 (read off the curve)” value is around 0.2 µg/mL.

As for B11, the “EC50 (read off the curve)” value was around 0.2 µg/mL.

For the molecule B12, the “EC50 (read off the curve)” value is around 0.2 µg/mL.

For the next test, the target named is T3, TIGIT (ECD)-hFc. Briefly: FACS blocking assay (protocol of Example 7): serially diluted antibody pre-incubated with TIGIT (ECD)-hFc, then binding of TIGIT (ECD)-hFc to A549/human PVR cells measured; blocked ligand: human PVR [A].
As for B1, the “IC50 (read off the curve)” value was around 4 µg/mL.

With B2, the “IC50 (read off the curve)” value was around 4 µg/mL.

Take B15: the “IC50 (read off the curve)” value is around 4 µg/mL.

Turning to B3, the “IC50 (read off the curve)” value is around 4 µg/mL.

Take B16: the “IC50 (read off the curve)” value was around 4 µg/mL.

For the molecule B17, the “IC50 (read off the curve)” value was around 4 µg/mL.

Take B4: the “IC50 (read off the curve)” value is around 4 µg/mL.

Consider B13, for which the “IC50 (read off the curve)” value is around 4 µg/mL.

Turning to B18, the “IC50 (read off the curve)” value was around 4 µg/mL.

With B5, the “IC50 (read off the curve)” value was around 4 µg/mL.

On to B19, for which the “IC50 (read off the curve)” value was around 4 µg/mL.

As for B6, the “IC50 (read off the curve)” value was around 4 µg/mL.

In the case of B20, the “IC50 (read off the curve)” value was around 4 µg/mL.

For the molecule B21, the “IC50 (read off the curve)” value is around 4 µg/mL.

In the next test the target is T3, TIGIT (ECD)-hFc. Briefly: FACS blocking assay (protocol of Example 7): serially diluted antibody pre-incubated with TIGIT (ECD)-hFc, then binding of TIGIT (ECD)-hFc to A549/human PVR cells measured; blocked ligand: human PVR [B].
As to B7, the “IC50 (read off the curve)” value was around 2 µg/mL.

Turning to B8, the “IC50 (read off the curve)” value was around 2 µg/mL.

On to B9, for which the “IC50 (read off the curve)” value was around 2 µg/mL.

Turning to B10, the “IC50 (read off the curve)” value is around 2 µg/mL.

For the molecule B14, the “IC50 (read off the curve)” value was around 2 µg/mL.

Turning to B11, the “IC50 (read off the curve)” value is around 2 µg/mL.
